Consider eight molecules from patent EP4269437A1 (Zhejiang Nanomab Technology Center Co. Ltd., dated 2023).

Where a chain is given by its changes, count along the chain named. Read-outs that look alike come from different tables or passages of the source.

One may read the Kd as a measure of binding affinity in units of concentration. Higher therefore signals lower affinity. For orientation: koff means the first-order rate constant of dissociation. A high value points to a short-lived complex. The term kon denotes the second-order rate constant of association. A lower kon goes with slow association.

For assay [1], the target named is T1, PD-1 (UniProt Q15116 25-170, limits assumed).
T1 construct: also called PD-1 protein
T1 sequence (Q15116 25-170 limits assumed): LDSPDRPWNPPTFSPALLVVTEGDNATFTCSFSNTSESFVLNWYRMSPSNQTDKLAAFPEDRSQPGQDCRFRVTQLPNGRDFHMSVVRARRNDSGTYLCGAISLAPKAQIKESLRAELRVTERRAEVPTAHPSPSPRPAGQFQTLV
Briefly: SPR; set-up and antigen form not restated.

Assay [2] concerns the target T1, PD-1. Briefly: SPR; set-up and antigen form not restated. The source holds these as a separate data set. (SPR reads the build-up and loss of mass on a sensor chip optically.)
Assay [3] addresses T1, PD-1. Briefly: SPR; set-up and antigen form not restated. The source holds these as a separate data set.
Assay [4] deals with PD-1 on GS-J2/PD1 effector cells (UniProt Q15116 25-288, limits assumed). Briefly: cell-based or functional assay.
PD-1 on GS-J2/PD1 effector cells, sequence (Q15116 25-288 limits assumed): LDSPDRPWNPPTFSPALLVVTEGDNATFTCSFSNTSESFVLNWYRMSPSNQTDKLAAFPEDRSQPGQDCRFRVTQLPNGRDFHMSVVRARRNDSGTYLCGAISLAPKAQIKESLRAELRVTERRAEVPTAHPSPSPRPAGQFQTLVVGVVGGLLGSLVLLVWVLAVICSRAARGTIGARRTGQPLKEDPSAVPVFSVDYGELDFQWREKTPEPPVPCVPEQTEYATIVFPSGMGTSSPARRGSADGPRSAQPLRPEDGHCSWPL
The target of a further assay is T2, murine PD-1 protein (murine, UniProt Q02242 25-167, limits assumed).
T2 construct: bought
T2 sequence (looked up): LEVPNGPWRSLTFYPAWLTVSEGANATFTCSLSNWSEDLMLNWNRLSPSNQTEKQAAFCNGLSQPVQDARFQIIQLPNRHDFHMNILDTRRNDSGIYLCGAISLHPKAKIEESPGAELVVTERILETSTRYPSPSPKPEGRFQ
The experiment in a line: ELISA on coated protein, anti-human Fc HRP. In general terms: An ELISA detects its analyte on a solid surface through an enzyme-linked reagent.

The target in the next assay is T3, CTLA-4 (UniProt P16410 36-161, limits assumed).
T3 construct: bought
T3 sequence (P16410 36-161 limits assumed): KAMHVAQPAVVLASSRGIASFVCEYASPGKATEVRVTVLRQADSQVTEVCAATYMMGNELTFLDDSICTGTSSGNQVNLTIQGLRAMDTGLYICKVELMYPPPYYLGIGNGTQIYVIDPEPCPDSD
Briefly: ELISA on coated protein, anti-human Fc HRP.

The target in a further assay is T4, ICOS (UniProt Q9Y6W8 21-140, limits assumed).
T4 construct: bought
T4 sequence (looked up): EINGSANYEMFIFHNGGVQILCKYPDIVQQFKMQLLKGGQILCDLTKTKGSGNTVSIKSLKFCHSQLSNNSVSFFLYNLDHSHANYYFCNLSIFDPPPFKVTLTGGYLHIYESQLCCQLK
The experiment in a line: ELISA on coated protein, anti-human Fc HRP.

For a further assay, the target named is T5, CD28 (UniProt P10747 19-152).
T5 construct: bought
Briefly: ELISA on coated protein, anti-human Fc HRP.

The next assay addresses T6, PD-1.His (UniProt Q15116 25-170, limits assumed).
T6 construct: not shown: His tag
The experiment in a line: SPR, antibody captured on protein A, PD-1.His in flow.

The target of a further assay is T7, human PD-1.Fc (human, UniProt Q15116 25-170, limits assumed).
T7 construct: also called PD-1; Fc protein; PD-1.hFc; not shown: human IgG Fc fragment
T7 sequence (Q15116 25-170 limits assumed): as the sequence (Q15116 25-170 limits assumed) above
The experiment in a line: SPR, antibody captured on protein A, PD-1.Fc in flow.

T6 sequence (Q15116 25-170 limits assumed): as above

B1: NB194-P29-z6 (Fc fusion)
heavy: QVQLVESGGGLVQPGGSLRLSCSASGHSFSIYDMGWFRQAAGKERESVAVINFGRGTTYYAESVKGRFTISRDNAKNTVYLQMNSLRAEDTAVYSCGIDRRQYGLGIPPLADHWGQGSQVTVSS
notes: not shown: IgG4 constant region of vector pCDNA3.4-IgG4
On to B1, for which, in the assay with PD-1 [1], binding was put at a Kd of 268 pM, the koff is 3.02e-05 s⁻¹ and the kon amounted to 113000 M⁻¹ s⁻¹.

B2: NB194-P29-z10 (Fc fusion)
heavy: B1 heavy with Q1E, V2L, S23A, G42D
notes: as for B1
Consider B2, for which, in the assay with PD-1 [1], the Kd worked out at 179 pM, the dissociation rate constant (koff) is 1.74e-05 s⁻¹ and the kon stood at 96800 M⁻¹ s⁻¹.

B3: NB194-P29-z9 (Fc fusion)
heavy: B1 heavy with H27F, S28T, G42D
notes: as for B1
As for B3, in the assay with PD-1 [1], the Kd was found to be 406 pM, the koff is 5.03e-05 s⁻¹ and the association rate constant (kon) is 124000 M⁻¹ s⁻¹.

B4: NB194-P29-z8 (Fc fusion)
heavy: B1 heavy with A41P
notes: as for B1
In the assay with PD-1 [1], B4 gave a dissociation constant (Kd) of 235 pM, a koff of 2.54e-05 s⁻¹ and an on-rate constant (kon) of 108000 M⁻¹ s⁻¹.

B5: NB194-P29 (Fc fusion)
heavy: QLQLVESGGGSAQAGGSLTLSCTASGHSFSIYDMGWFRQAADKERESVAVINFGRGTTYYAESVKGRFTISLDSAKNTVYLQMNTLKPEDTAVYSCGIDRRQYGLGIPPLADHWGQGSQVTVSS
notes: as for B1
Consider B5, for which, in the assay with PD-1 [2], the “fold increase in affinity compared to NB194” value was 5 fold. In the assay with PD-1 [3], this molecule came in with a Kd of 118 pM, a koff of 2.86e-05 s⁻¹ and an on-rate constant (kon) of 243000 M⁻¹ s⁻¹. In the assay with PD-1 [1], this molecule displayed a Kd of 151 pM, a koff of 4.37e-05 s⁻¹ and an association rate constant (kon) of 290000 M⁻¹ s⁻¹.

B6: NB194-P29-z7 (Fc fusion)
heavy: B1 heavy with G42D, R72L
notes: as for B1
Take B6: in the assay with PD-1 [1], binding was put at a Kd of 150 pM, the koff is 2.18e-05 s⁻¹ and the kon stood at 145000 M⁻¹ s⁻¹.

B7: NB194 (Fc fusion)
heavy: QVQLVETGGGLVRAGGSLRLSCTASGRPFSIYDMGWFRQAPDKERESVAVINLSRGDTYYADSVKGRFTISLDSAKNTVYLQMNSLKPEDTAVYSCGVDRRQYGLGIPPLADHWGQGTQVTVSS
notes: as for B1
Take B7: the “Reporter Gene Assay EC50 (luciferase)” value in assay [4] is 7000 pM. Also, the binding result was “no binding (tested: 0.1µg)” with murine PD-1 protein, “no binding” in the assay with CTLA-4, “no binding” with ICOS and “no binding” with CD28. Further, the equilibrium dissociation constant (Kd) in the assay with PD-1 [3] stood at 531 pM; with PD-1.His it was 494 pM. The koff worked out at 7.36e-05 s⁻¹ in the assay with PD-1 [3] and 0.000105 s⁻¹ in the assay with PD-1.His. Moreover, the results for the on-rate constant (kon) in the assay with PD-1 [3] and with PD-1.His were 139000 M⁻¹ s⁻¹ and 212000 M⁻¹ s⁻¹, respectively.

B8: NB182 (Fc fusion)
heavy: QVQLVESGGGLVQAGGSLRLSCAASGDTSFISAAGWYRQAPGKERELVAAITNTGITYYPDSVKGRFTISRDNAKNTVYLQMNNLKPEDTAVYYCNAGAPPPGGLGYDESDYWGQGTQVTVSS
notes: as for B1
Take B8: in assay [4], the “Reporter Gene Assay EC50 (luciferase)” value was found to be 16300 pM. The binding result with murine PD-1 protein is listed as “no binding (tested: 0.1µg)”; with CTLA-4, “no binding”; with ICOS, “no binding”; with CD28, “no binding”. Moreover, the Kd with human PD-1.Fc and with PD-1.His was 8670 pM in each case. Moreover, the koff with human PD-1.Fc and with PD-1.His was 6.4e-05 s⁻¹ throughout. Besides, the kon with human PD-1.Fc and with PD-1.His was 7380 M⁻¹ s⁻¹ throughout.
